Patent publication US20240376207A1 (JIANGSU HENGRUI PHARMACEUTICALS, published 2024)

T1: his-tagged human PVRIG (h-PVRIG-his) recombinant protein (human, UniProt Q6DKI7 41-171, limits assumed)
T1 construct: bought from Acrobiosystems; also called Human PVRIG-his; human PVRIG recombinant protein; not shown: his tag
T1 sequence (looked up): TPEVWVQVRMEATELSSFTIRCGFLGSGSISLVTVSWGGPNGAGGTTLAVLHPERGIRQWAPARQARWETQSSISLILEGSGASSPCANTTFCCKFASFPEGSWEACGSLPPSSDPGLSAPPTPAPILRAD

T2: human PVRIG expressed on cells (human, UniProt Q6DKI7 41-326)
T2 sequence (looked up): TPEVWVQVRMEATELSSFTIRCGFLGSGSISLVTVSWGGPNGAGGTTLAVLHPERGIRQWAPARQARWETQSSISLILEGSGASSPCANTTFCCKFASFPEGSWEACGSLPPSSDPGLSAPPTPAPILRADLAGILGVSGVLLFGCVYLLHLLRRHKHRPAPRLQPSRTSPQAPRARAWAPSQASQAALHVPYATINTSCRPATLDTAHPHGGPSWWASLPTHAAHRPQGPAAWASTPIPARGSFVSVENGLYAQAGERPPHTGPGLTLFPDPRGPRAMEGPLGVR

T3: cynomolgus monkey PVRIG expressed on cells (cynomolgus monkey, UniProt A0A2K5WVV8 1-322)
T3 construct: whole, on cells; also called Monkey PVRIG FACS; cells overexpressing cynomolgus monkey PVRIG
T3 sequence: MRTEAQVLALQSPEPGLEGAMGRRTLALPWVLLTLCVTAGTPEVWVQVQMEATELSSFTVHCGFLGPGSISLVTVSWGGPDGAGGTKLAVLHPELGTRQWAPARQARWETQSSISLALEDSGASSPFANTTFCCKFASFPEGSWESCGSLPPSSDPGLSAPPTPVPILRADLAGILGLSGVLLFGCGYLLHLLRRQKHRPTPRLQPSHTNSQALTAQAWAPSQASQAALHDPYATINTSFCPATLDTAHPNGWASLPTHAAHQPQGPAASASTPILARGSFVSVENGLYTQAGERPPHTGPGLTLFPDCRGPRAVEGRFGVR


Experiments:
[1] = target: T1, his-tagged human PVRIG (h-PVRIG-his) …; test: BLI (Fortebio), antibody on Protein A sensor, 1:1 fit
Protocol: A Protein A biosensor (Fortebio, #18-5010) was immersed in 200 μL of KB buffer (PBS, pH 7.4, 0.02% tween-20, 0.1% BSA) for 60 s for the wetting treatment. Then, the anti-PVRIG antibody was diluted to 10 μg/mL with the KB buffer, and the sensor was immersed in 200 μL of the solution until the reading was 1.2 nm. The sensor was immersed in the KB buffer for 100 s to elute excess antibody. The his-tagged human PVRIG was diluted in a 2-fold gradient to 64 nM-4 nM with the KB buffer. The sensor was immersed in the solution for 300 s for binding. The sensor was immersed in the KB buffer for 600 s for dissociation. The data were fitted in a dynamic 1:1 binding mode.
The affinity of the humanized anti-PVRIG antibodies for human PVRIG was detected according to the method of Example 7. All the antibodies listed in the Table have high affinity for human PVRIG.

[2] = target: T2, human PVRIG expressed on cells; test: cell-based or functional assay
[3] = target: T2, human PVRIG expressed on cells; test: FACS, HEK293 cells overexpressing target
Protocol: (§1) The expression plasmid carrying human or cynomolgus monkey PVRIG gene sequence was transfected into HEK293 cells, and the over-expressing stable transfection monoclonal cell strain was obtained by antibiotic screening and infinite dilution. Overexpressing cells were seeded into a 96-well plate at 2×10⁵ cells/per well. The cells were centrifuged at 300 g for 5 min, the supernatant was then removed, 100 μL of the test antibody was added, and the mixture was incubated at 4° C. for 1 h. The mixture was centrifuged, the supernatant was removed, the plate was washed 3 times with 200 μL of wash buffer (PBS+2% FBS), and then 100 μL of an anti-human IgG secondary antibody (Invitrogen, A-11013) labeled with Alexa Fluor 488 diluted at 1:500 was added. The mixture was incubated at 4° C. for 1 h. The plate was centrifuged, and the supernatant was removed. The plate was washed 3 times with 200 μL of wash buffer (PBS+2% FBS). The cells were resuspended in 100 μL of PBS and tested on a flow cytometer (BD FACS Calibur or BD FACS Canto_II).
(§2) Binding of the humanized anti-PVRIG antibodies to human or cynomolgus monkey PVRIG was detected by using a flow cytometer according to the method of Example 5.

[4] = target: T3, cynomolgus monkey PVRIG expressed on …; test: FACS, HEK293 cells overexpressing target
Protocol: as §1, §2

[5] = target: T2, human PVRIG expressed on cells; test: cell-based or functional assay; remark: listed apart in the source

| Binder | Kd [1] [nM] | koff [1] [s⁻¹] | kon [1] [M⁻¹ s⁻¹] | PVRIG reporter gene cell activity EC50 [2] [nM] | EC50 [3] [nM] | EC50 [4] [nM] | NK92 killing of K562, killing activity (%), 4 nM antibody [5] [%] | NK92 killing of K562, killing activity (%), 20 nM antibody [5] [%] | NK92 killing of K562, killing activity (%), 100 nM antibody [5] [%] |
| --- | --- | --- | --- | --- | --- | --- | --- | --- | --- |
| humanized anti-PVRIG antibody 30H3 (antibody, human IgG4 S228P, F234A L235A, V domains shown) VH: EVQLVESGGGLVQPGGSLRLSCAASGYSYSGDCMGWFRQAPGKGLDEGVATIDNAGRIKYADSVKGRFTISRDNAKNSLYLQMNSLRAEDTAVYYCAAGWTFGGQCSPADWGQGTQVTVSS | 2.41 | 0.000358 | 148000 | 0.078 | 0.004 | 0.003 | – | – | – |
| humanized anti-PVRIG antibody 39H4 (antibody, human IgG4 S228P, F234A L235A, V domains shown) VH: EVQLVESGGGLVQPGGSLRLSCAASGYTSRTDCMGWFRQAPGKGLEGVAHIDSDGIPRYVESVKGRFTISQDHAKNSLYLQMNSLRAEDTAVYYCVVGFKFGDYCAPNDWGQGTMVTVSS | 0.482 | 9.11e-05 | 189000 | 0.094 | 0.005 | 0.006 | – | – | – |
| humanized anti-PVRIG antibody 39H1 (antibody, human IgG4 S228P, F234A L235A, V domains shown) VH: EVQLVESGGGLVQPGGSLRLSCAASGFTFSTDCMGWFRQAPGKGLEGVAHIDSDGIPRYVESVKGRFTISRDNAKNSLYLQMNSLRAEDTAVYYCVVGFKFGDYCAPNDWGQGTMVTVSS | 3.28 | 0.000865 | 264000 | 0.191 | 0.004 | 0.251 | 13.7 | 17.7 | 21.2 |
| humanized anti-PVRIG antibody 39H2 (antibody, human IgG4 S228P, F234A L235A, V domains shown) VH: EVQLVESGGGLVQPGGSLRLSCAASGFTSRTDCMGWFRQAPGKGLEGVAHIDSDGIPRYVESVKGRFTISRDNAKNSLYLQMNSLRAEDTAVYYCVVGFKFGDYCAPNDWGQGTMVTVSS | 0.692 | 0.000124 | 180000 | 0.074 | 0.006 | 0.019 | 15.3 | 18.7 | 19.7 |
| humanized anti-PVRIG antibody 39H3 (antibody, human IgG4 S228P, F234A L235A, V domains shown) VH: EVQLVESGGGLVQPGGSLRLSCAASGYTFSTDCMGWFRQAPGKGLEGVAHIDSDGIPRYVESVKGRFTISQDHAKNSLYLQMNSLRAEDTAVYYCVVGFKFGDYCAPNDWGQGTMVTVSS | – | – | – | – | 0.005 | 0.348 | – | – | – |
| humanized anti-PVRIG antibody 39H5 (antibody, human IgG4 S228P, F234A L235A, V domains shown) VH: EVQLVESGGGLVQPGGSLRLSCAASGYTSRTDCMGWFRQAPGKEREGVAHIDSDGIPRYVESVKGRFTISQDHAKNSLYLQMNSLRAEDTAVYYCVVGFKFGDYCAPNDWGQGTMVTVSS | – | – | – | – | 0.006 | 0.208 | – | – | – |
| humanized anti-PVRIG antibody 151H9 (antibody, human IgG4 S228P, F234A L235A, V domains shown) VH: HVQLVESGGGLVQPGGSLRLSCVASASGFTYRPYCMAWFRQAPGKGLEAVAGIDIFGGTTYADSVKGRFTASRDNAGFSLYLQMNSLRAEDTAVYYCAAGDSPDGRCPPLGQGLNYWGQGTMVTVSS | – | – | – | – | 0.004 | 3.94 | – | – | – |
| humanized anti-PVRIG antibody 151H4 (antibody, human IgG4 S228P, F234A L235A, V domains shown) VH: EVQLVESGGGLVQPGGSLRLSCVASASGFTYRPYCMAWFRQAPGKGLEAVAGIDIFGGTTYADSVKGRFTISRDNAKNSLYLQMNSLRAEDTAVYYCAAGDSPDGRCPPLGQGLNYWGQGTMVTVSS | – | – | – | 3.55 | 0.24 | 0.035 | – | – | – |
| humanized anti-PVRIG antibody 38H9 (antibody, human IgG4 S228P, F234A L235A, V domains shown) VH: EVQLVESGGGVVQPGGSLRLSCAASPSTYGPSDMAWFRQAPGKGLEGVATISAAGRLTYYTDSVRGRFTISRDNSKNTMYLQMNSLRAEDTAVYYCAADFAGGSSLFADYKYWGQGTMVTVSS | – | – | – | – | 0.068 | – | – | – | – |
| humanized anti-PVRIG antibody 38H4 (antibody, human IgG4 S228P, F234A L235A, V domains shown) VH: EVQLVESGGGVVQPGGSLRLSCAASPFTYGPSDMAWFRQAPGKGLEGVATISAAGRLTYYTDSVRGRFTISRDNSKNTLYLQMNSLRAEDTAVYYCAADFAGGSSLFADYKYWGQGTMVTVSS | – | – | – | – | 0.062 | 0.095 | – | – | – |
| humanized anti-PVRIG antibody 38H8 (antibody, human IgG4 S228P, F234A L235A, V domains shown) VH: EVQLVESGGGVVQPGGSLRLSCAASPSTYGPSDMAWFRQAPGKGLEGVATISAAGRLTYYTDSVRGRFTISRDNSKNTLYLQMNSLRAEDTAVYYCAADFAGGSSLFADYKYWGQGTMVTVSS | – | – | – | – | 0.065 | – | – | – | – |
| humanized anti-PVRIG antibody 20H4 (antibody, human IgG4 S228P, F234A L235A, V domains shown) VH: EVQLVESGGGLVQPGGSLRLSCAASGYTSRTDCMGWFRQAPGKGLEGVAHIDSDGIPRYVDSVKGRFTISQDHAKNSLYLQMNSLRAEDTAVYYCVVGFKFDEDYCAPNDWGQGTMVTVSS | – | – | – | – | 0.008 | 0.591 | – | – | – |
| humanized anti-PVRIG antibody 20H1 (antibody, human IgG4 S228P, F234A L235A, V domains shown) VH: EVQLVESGGGLVQPGGSLRLSCAASGFTFSTDCMGWFRQAPGKGLEGVAHIDSDGIPRYVDSVKGRFTISRDNAKNSLYLQMNSLRAEDTAVYYCVVGFKFDEDYCAPNDWGQGTMVTVSS | – | – | – | – | 0.019 | 0.658 | – | – | – |
| humanized anti-PVRIG antibody 20H2 (antibody, human IgG4 S228P, F234A L235A, V domains shown) VH: EVQLVESGGGLVQPGGSLRLSCAASGFTSRTDCMGWFRQAPGKGLEGVAHIDSDGIPRYVDSVKGRFTISRDNAKNSLYLQMNSLRAEDTAVYYCVVGFKFDEDYCAPNDWGQGTMVTVSS | – | – | – | – | 0.006 | 0.338 | – | – | – |
| humanized anti-PVRIG antibody 20H3 (antibody, human IgG4 S228P, F234A L235A, V domains shown) VH: EVQLVESGGGLVQPGGSLRLSCAASGYTFSTDCMGWFRQAPGKGLEGVAHIDSDGIPRYVDSVKGRFTISQDHAKNSLYLQMNSLRAEDTAVYYCVVGFKFDEDYCAPNDWGQGTMVTVSS | – | – | – | – | 0.006 | 1.5 | – | – | – |
| humanized anti-PVRIG antibody 30H1 (antibody, human IgG4 S228P, F234A L235A, V domains shown) VH: EVQLVESGGGLVQPGGSLRLSCAASGFTFSGDCMGWFRQAPGKGLEGVATIDNAGRIKYADSVKGRFTISRDNAKNSLYLQMNSLRAEDTAVYYCAAGWTFGGQCSPADWGQGTQVTVSS | – | – | – | – | 0.024 | 0.374 | – | – | – |
| humanized anti-PVRIG antibody 38H7 (antibody, human IgG4 S228P, F234A L235A, V domains shown) VH: EVQLVESGGGVVQPGGSLRLSCAASPSTYGPSDMAWFRQAPGKQREGVATISAAGRLTYYTDSVRGRFTISRDNSKNTMYLQMNSLRAEDTAVYYCAADFAGGSSLFADYKYWGQGTMVTVSS | – | – | – | – | 0.04 | 0.049 | – | – | – |
| humanized anti-PVRIG antibody 38H2 (antibody, human IgG4 S228P, F234A L235A, V domains shown) VH: EVQLVESGGGVVQPGGSLRLSCAASGFTFSPSDMAWFRQAPGKGLEGVATISAAGRLTYYTDSVRGRFTISRDNSKNTLYLQMNSLRAEDTAVYYCAADFAGGSSLFADYKYWGQGTMVTVSS | – | – | – | – | 0.088 | 0.137 | – | – | – |
